Biological target: T1, complement C3b (UniProt P01024 23-667; P01024 749-1663)
T1 construct: purified C3b (Complement Technology Inc. cat #A114) in the cleavage assay; also called purified C3b; C3b fragment
Assay: C3b binding ELISA, C3b-coated plate, HEK293T supernatant
Description: C3b binding ELISA. The C3b binding ELISA is an in-house ELISA adapted from Nichols et. al. ([…] The assay tests if CpG-free miniCFH retains direct C3b binding ability by utilizing monoclonal anti-CFH blocking antibodies to prevent miniCFH binding to a C3b coated plate. The assay was carried out with both full-length recombinant CFH as proof of concept, and supernatants from 293T cells transfected with CpG-free miniCFH. As a control, we included conditions of mock incubation of CFH and transfected cell supernatant with no antibodies.

T1 sequence (P01024 23-667 limits assumed, chain 1 of 2): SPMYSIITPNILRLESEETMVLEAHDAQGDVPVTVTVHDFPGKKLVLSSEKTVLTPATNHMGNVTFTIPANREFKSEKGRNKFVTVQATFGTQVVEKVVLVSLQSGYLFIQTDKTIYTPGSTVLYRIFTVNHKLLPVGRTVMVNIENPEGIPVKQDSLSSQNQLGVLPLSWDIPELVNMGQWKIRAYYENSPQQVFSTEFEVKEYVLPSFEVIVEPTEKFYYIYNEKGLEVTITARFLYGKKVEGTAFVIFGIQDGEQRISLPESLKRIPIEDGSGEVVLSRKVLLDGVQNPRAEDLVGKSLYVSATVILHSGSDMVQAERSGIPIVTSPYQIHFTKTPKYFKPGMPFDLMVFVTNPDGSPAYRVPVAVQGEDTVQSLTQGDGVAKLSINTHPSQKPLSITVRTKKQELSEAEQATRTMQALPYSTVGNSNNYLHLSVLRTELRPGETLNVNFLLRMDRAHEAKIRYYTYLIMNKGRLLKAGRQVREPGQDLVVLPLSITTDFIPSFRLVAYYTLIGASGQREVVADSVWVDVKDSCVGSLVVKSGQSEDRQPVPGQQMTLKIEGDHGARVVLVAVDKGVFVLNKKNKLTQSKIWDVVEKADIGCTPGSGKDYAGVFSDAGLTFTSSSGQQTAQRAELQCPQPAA
T1 sequence (P01024 749-1663 limits assumed, chain 2 of 2): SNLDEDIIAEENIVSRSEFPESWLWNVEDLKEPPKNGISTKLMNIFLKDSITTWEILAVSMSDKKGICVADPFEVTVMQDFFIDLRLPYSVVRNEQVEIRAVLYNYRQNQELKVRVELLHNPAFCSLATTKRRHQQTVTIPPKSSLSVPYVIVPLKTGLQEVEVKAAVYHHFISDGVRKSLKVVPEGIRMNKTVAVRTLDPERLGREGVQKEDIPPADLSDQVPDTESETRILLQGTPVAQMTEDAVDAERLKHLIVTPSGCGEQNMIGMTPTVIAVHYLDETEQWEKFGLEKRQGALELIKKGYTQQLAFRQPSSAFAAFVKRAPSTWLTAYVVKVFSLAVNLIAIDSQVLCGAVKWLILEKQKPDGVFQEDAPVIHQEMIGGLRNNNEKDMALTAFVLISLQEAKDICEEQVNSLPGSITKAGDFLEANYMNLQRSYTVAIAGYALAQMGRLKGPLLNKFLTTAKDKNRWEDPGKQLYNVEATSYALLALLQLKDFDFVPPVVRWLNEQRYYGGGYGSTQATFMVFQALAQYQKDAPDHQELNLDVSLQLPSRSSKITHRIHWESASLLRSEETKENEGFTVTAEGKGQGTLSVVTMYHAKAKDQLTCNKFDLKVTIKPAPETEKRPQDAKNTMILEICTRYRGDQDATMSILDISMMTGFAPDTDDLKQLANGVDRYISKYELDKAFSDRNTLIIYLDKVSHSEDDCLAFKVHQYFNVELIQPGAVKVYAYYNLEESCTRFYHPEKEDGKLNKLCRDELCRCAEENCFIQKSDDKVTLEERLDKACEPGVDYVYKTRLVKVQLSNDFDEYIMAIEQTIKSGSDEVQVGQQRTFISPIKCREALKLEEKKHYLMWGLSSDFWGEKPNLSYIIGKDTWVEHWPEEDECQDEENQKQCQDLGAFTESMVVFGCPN

B1: miniCFH (shortened form of human complement factor H containing SCRs 1-4, 6-8 and 17-20) (other)
chain: EDCNELPPRRNTEILTGSWSDQTYPEGTQAIYKCRPGYRSLGNIIMVCRKGEWVALNPLRKCQKRPCGHPGDTPFGTFTLTGGNVFEYGVKAVYTCNEGYQLLGEINYRECDTDGWTNDIPICEVVKCLPVTAPENGKIVSSAMEPDREYHFGQAVRFVCNSGYKIEGDEEMHCSDDGFWSKEKPKCVEISCKSPDVINGSPISQKIIYKENERFQYKCNMGYEYSERGDAVCTESGWRPLPSCEEKSTLKPCDYPDIKHGGLYHENMRRPYFPVAVGKYYSYYCDEHFETPSGSYWDHIHCTQDGWSPAVPCLRKCYFPYLENGYNQNYGRKFVQGKSIDVACHPGYALPKAQTTVTCMENGWSPTPRCIRVKTCSKSSIDIENGFISESQYTYALKEKAKYQCKLGYVTADGETSGSITCGKDGWSAQPTCIKSIKTDCLSLPSFENAIPMGEKKDVYKAGEQVTYTCATYYKMDGASNVTCINSRWTGRPTCRDTSCVNPPTVQNAYIVSRQMSKYPSGERVRYQCRSPYEMFGDEEVMCLNGNWTEPPQCKDSTGKCGPPPPIDNGDITSFPLSVYAPASSVEYQCQNLYQLEGNKRITCRNGQWSEPPKCLHPCVISREIMENYNIALRWTAKQKLYSRTGESVEFVCKRGYRLSSRSHTLRTTCWDGKLEYPTCAKR
notes: Tested as unpurified serum-free supernatant of HEK293T cells transfected with the rAAV plasmid cassette; also called CpG-free miniCFH; short CFH
binding result: binds
